Source: the Human Domainome abundance scans (Beltran et al. 2025)
± gives the uncertainty stated by the source.

B1: KAT8 regulatory NSL complex subunit 2, residues 28 to 91; numbered along this chain, Q9H9L4 (parent)
chain: CAFTHRPCSHPRLEGQEFCIKHILEDKNAPFKQCSYISTKNGKRCPNAAPKPEKKDGVSFCAEH

Variants of: B1
Experiment: abundance fitness (aPCA) (normalised: wild type 0, dead -1); higher = more abundant; growth selection in yeast, the domain comes from the species named
Settings: Homo sapiens

CAFTHRPCSHPRLEGQEFCIKHILEDKNAPFKQCSYISTKNGKRCPNAAPKPEKKDGVSFCARH and CAFTHRPCSHPRLEGQEFCIKHILEDKNAPFKQCSYISTKNGKRCPNAAPKPEKKDGVSFCAHH are within error of each other in abundance fitness: -0.024 ± 0.047 for the first, 0.136 ± 0.16 for the second.

CAFTHRPCSHPRLEGQEFCIKHILEDKNAPFKQCSYISTKNGKRCPNAAPKPEKKDGVSFCANH and CAFTHRPCSHPRLEGQEFCIKHILEDKNAPFKQCSYISTKNGKRCPNAAPKPEKKDGVSFCALH are within error of each other in abundance fitness: -0.062 ± 0.094 for the first, -0.17 ± 0.047 for the second.

CAFTHRPCSHPRLEGQEFCIKHILEDKNAPFKQCSYISTKNGKRCPNAAPKPEKKDGVSFCAIH and CAFTHRPCSHPRLEGQEFCIKHILEDKNAPFKQCSYISTKNGKRCPNAAPKPEKKDGVSFCEEH are within error of each other in abundance fitness: -0.223 ± 0.1 for the first, -0.101 ± 0.078 for the second.

Compared with CAFTHRPCSHPRLEGQEFCIKHILEDKNAPFKQCSYISTKNGKRCPNAAPKPEKKDGVSFCKEH, CAFTHRPCSHPRLEGQEFCIKHILEDKNAPFKQCSYISTKNGKRCPNAAPKPEKKDGVSFCSEH is lower in abundance fitness: 0.095 ± 0.075 for the first, -0.055 ± 0.044 for the second.

CAFTHRPCSHPRLEGQEFCIKHILEDKNAPFKQCSYISTKNGKRCPNAAPKPEKKDGVSFCNEH and CAFTHRPCSHPRLEGQEFCIKHILEDKNAPFKQCSYISTKNGKRCPNAAPKPEKKDGVSFCGEH are within error of each other in abundance fitness: -0.105 ± 0.14 for the first, -0.078 ± 0.046 for the second.

CAFTHRPCSHPRLEGQEFCIKHILEDKNAPFKQCSYISTKNGKRCPNAAPKPEKKDGVSFCHEH and CAFTHRPCSHPRLEGQEFCIKHILEDKNAPFKQCSYISTKNGKRCPNAAPKPEKKDGVSFCYEH are within error of each other in abundance fitness: -0.081 ± 0.088 for the first, -0.198 ± 0.085 for the second.

CAFTHRPCSHPRLEGQEFCIKHILEDKNAPFKQCSYISTKNGKRCPNAAPKPEKKDGVSFCWEH and CAFTHRPCSHPRLEGQEFCIKHILEDKNAPFKQCSYISTKNGKRCPNAAPKPEKKDGVSFCCEH are within error of each other in abundance fitness: -0.088 ± 0.031 for the first, -0.018 ± 0.057 for the second.

CAFTHRPCSHPRLEGQEFCIKHILEDKNAPFKQCSYISTKNGKRCPNAAPKPEKKDGVSFCMEH and CAFTHRPCSHPRLEGQEFCIKHILEDKNAPFKQCSYISTKNGKRCPNAAPKPEKKDGVSFCQEH are within error of each other in abundance fitness: -0.103 ± 0.051 for the first, -0.057 ± 0.061 for the second.

CAFTHRPCSHPRLEGQEFCIKHILEDKNAPFKQCSYISTKNGKRCPNAAPKPEKKDGVSFCVEH and CAFTHRPCSHPRLEGQEFCIKHILEDKNAPFKQCSYISTKNGKRCPNAAPKPEKKDGVSFCLEH are within error of each other in abundance fitness: -0.059 ± 0.051 for the first, -0.087 ± 0.035 for the second.

CAFTHRPCSHPRLEGQEFCIKHILEDKNAPFKQCSYISTKNGKRCPNAAPKPEKKDGVSFCREH and CAFTHRPCSHPRLEGQEFCIKHILEDKNAPFKQCSYISTKNGKRCPNAAPKPEKKDGVSFCFEH are within error of each other in abundance fitness: -0.028 ± 0.035 for the first, -0.111 ± 0.066 for the second.

CAFTHRPCSHPRLEGQEFCIKHILEDKNAPFKQCSYISTKNGKRCPNAAPKPEKKDGVSFCIEH and CAFTHRPCSHPRLEGQEFCIKHILEDKNAPFKQCSYISTKNGKRCPNAAPKPEKKDGVSFCPEH are within error of each other in abundance fitness: -0.057 ± 0.076 for the first, -0.065 ± 0.073 for the second.

CAFTHRPCSHPRLEGQEFCIKHILEDKNAPFKQCSYISTKNGKRCPNAAPKPEKKDGVSFCTEH and CAFTHRPCSHPRLEGQEFCIKHILEDKNAPFKQCSYISTKNGKRCPNAAPKPEKKDGVSFCDEH are within error of each other in abundance fitness: -0.065 ± 0.059 for the first, -0.093 ± 0.07 for the second.

First: CAFTHRPCSHPRLEGQEFCIKHILEDKNAPFKQCSYISTKNGKRCPNAAPKPEKKDGVSFCAEW
Second: CAFTHRPCSHPRLEGQEFCIKHILEDKNAPFKQCSYISTKNGKRCPNAAPKPEKKDGVSFCAEK
The abundance fitness of the first is lower: -1.55 ± 0.46 for the first, -0.509 ± 0.34 for the second.

CAFTHRPCSHPRLEGQEFCIKHILEDKNAPFKQCSYISTKNGKRCPNAAPKPEKKDGVSFCAEL and CAFTHRPCSHPRLEGQEFCIKHILEDKNAPFKQCSYISTKNGKRCPNAAPKPEKKDGVSFCAEM are within error of each other in abundance fitness: -0.602 ± 0.081 for the first, -0.333 ± 0.22 for the second.

CAFTHRPCSHPRLEGQEFCIKHILEDKNAPFKQCSYISTKNGKRCPNAAPKPEKKDGVSFCAEA and CAFTHRPCSHPRLEGQEFCIKHILEDKNAPFKQCSYISTKNGKRCPNAAPKPEKKDGVSFCAEV are within error of each other in abundance fitness: -0.582 ± 0.23 for the first, -0.534 ± 0.12 for the second.

CAFTHRPCSHPRLEGQEFCIKHILEDKNAPFKQCSYISTKNGKRCPNAAPKPEKKDGVSFCAEQ and CAFTHRPCSHPRLEGQEFCIKHILEDKNAPFKQCSYISTKNGKRCPNAAPKPEKKDGVSFCAED are within error of each other in abundance fitness: -0.463 ± 0.21 for the first, -0.324 ± 0.11 for the second.

Going from CAFTHRPCSHPRLEGQEFCIKHILEDKNAPFKQCSYISTKNGKRCPNAAPKPEKKDGVSFCAEN to CAFTHRPCSHPRLEGQEFCIKHILEDKNAPFKQCSYISTKNGKRCPNAAPKPEKKDGVSFCAEY, the abundance fitness falls from -0.441 ± 0.082 to -0.781 ± 0.12.

Going from CAFTHRPCSHPRLEGQEFCIKHILEDKNAPFKQCSYISTKNGKRCPNAAPKPEKKDGVSFCAEE to CAFTHRPCSHPRLEGQEFCIKHILEDKNAPFKQCSYISTKNGKRCPNAAPKPEKKDGVSFCAEP, the abundance fitness rises from -0.877 ± 0.32 to -0.401 ± 0.13.

Going from CAFTHRPCSHPRLEGQEFCIKHILEDKNAPFKQCSYISTKNGKRCPNAAPKPEKKDGVSFCAET to CAFTHRPCSHPRLEGQEFCIKHILEDKNAPFKQCSYISTKNGKRCPNAAPKPEKKDGVSFCAEI, the abundance fitness falls from -0.33 ± 0.14 to -1.02 ± 0.32.

CAFTHRPCSHPRLEGQEFCIKHILEDKNAPFKQCSYISTKNGKRCPNAAPKPEKKDGVSFCAES and CAFTHRPCSHPRLEGQEFCIKHILEDKNAPFKQCSYISTKNGKRCPNAAPKPEKKDGVSFCAER are within error of each other in abundance fitness: -0.315 ± 0.15 for the first, -0.427 ± 0.11 for the second.
